Source: PMC9352680, “A comprehensive thermodynamic model for RNA binding by the Saccharomyces cerevisiae Pumilio protein PUF4”
Residue numbers refer to the chain shown, from its start. Names may count otherwise.

T1: PUF4 RNA-binding domain (Saccharomyces cerevisiae, UniProt P25339 537-888)
T1 sequence: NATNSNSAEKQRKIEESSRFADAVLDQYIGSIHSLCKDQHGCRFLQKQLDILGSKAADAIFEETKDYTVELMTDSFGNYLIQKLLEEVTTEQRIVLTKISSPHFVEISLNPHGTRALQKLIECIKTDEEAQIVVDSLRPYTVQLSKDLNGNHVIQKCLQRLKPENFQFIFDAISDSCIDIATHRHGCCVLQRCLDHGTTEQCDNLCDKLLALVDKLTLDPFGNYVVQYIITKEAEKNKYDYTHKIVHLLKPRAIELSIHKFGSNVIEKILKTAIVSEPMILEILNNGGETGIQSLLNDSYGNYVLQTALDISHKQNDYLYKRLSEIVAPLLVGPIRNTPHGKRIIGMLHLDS

B1: Ia_S2_P3E.1_K3.1_C3.1_H3.1_[A4C]_A3.1_F3.1_T3.1 (ssRNA)
RNA: UUUGAUUAAUAUGAUAUCGUUCUUUCUUGUCUAUAUUCUUUCUCGAUAUCAUAUUAAUCUUU
B2: Ib_S2_P3E.1_K3.1_C3.1_H3.1_[T1A]_[G2A]_A3.1_F3.1_T3.1 (ssRNA)
RNA: B1 RNA with U28A, G29A, C31A
B3: Ib_S2_P3E.1_K3.1_C3.1_H3.1_[T1G]_[G2T]_A3.1_F3.1_T3.1 (ssRNA)
RNA: B1 RNA with U28G, G29U, C31A
B4: Ib_S2_P3E.1_K3.1_C3.1_H3.1_[T1C]_[T3C]_A3.1_F3.1_T3.1 (ssRNA)
RNA: B1 RNA with U28C, U30C, C31A
B5: Ib_S2_P3E.1_K3.1_C3.1_H3.1_[T1G]_[G2C]_A3.1_F3.1_T3.1 (ssRNA)
RNA: B1 RNA with U28G, G29C, C31A
B6: Ib_S2_P3E.1_K3.1_C3.1_H3.1_[T1C]_[G2C]_A3.1_F3.1_T3.1 (ssRNA)
RNA: B1 RNA with U28C, G29C, C31A
B7: Ie_S2_P4E.1_K4.1_C4.1_H4.1_A4.1_F4.1_[+9CC]_T4.1 (ssRNA)
RNA: UUUGAUUAAUAUGAUAUCGUUCUUUCUUGUAUAUUACCUUCUUUCUCGAUAUCAUAUUAAUCUUU
B8: Ie_S2_P4E.1_K4.1_C4.1_H4.1_A4.1_F4.1_[+9TC]_T4.1 (ssRNA)
RNA: B7 RNA with C37U
B9: Ie_S2_P5E.1_K5.1_C5.1_H5.1_[+2T]_A5.1_F5.1_T5.1 (ssRNA)
RNA: B7 RNA with A31U, U32A, A33U, U35A, A36U, C37U, C38A
B10: Ie_S2_P4E.1_K4.1_C4.1_H4.1_A4.1_F4.1_[+8TCTCT]_T4.1 (ssRNA)
RNA: UUUGAUUAAUAUGAUAUCGUUCUUUCUUGUAUAUUUCUCUAUUCUUUCUCGAUAUCAUAUUAAUCUUU
B11: Ie_S2_P5E.1_K5.1_C5.1_H5.1_[+2TCTC]_A5.1_F5.1_T5.1 (ssRNA)
RNA: B10 RNA with A31C, A33C, U35A, C37U, U38A, C39U
B12: Ie_S2_P4E.1_K4.1_C4.1_H4.1_A4.1_F4.1_[+9CTCTC]_T4.1 (ssRNA)
RNA: B10 RNA with U36A, A41C
B13: Ie_S2_P4E.1_K4.1_C4.1_H4.1_A4.1_F4.1_[+9CCTCT]_T4.1 (ssRNA)
RNA: B10 RNA with U36A, U38C, C39U, U40C, A41U
B14: Ie_S2_P4E.1_K4.1_C4.1_H4.1_A4.1_F4.1_[+9TTCCT]_T4.1 (ssRNA)
RNA: B10 RNA with U36A, C37U, U40C, A41U
B15: Ie_S2_P5E.1_K5.1_C5.1_H5.1_[+2CCCT]_A5.1_F5.1_T5.1 (ssRNA)
RNA: B10 RNA with U30C, A31C, U32C, A33U, U35A, C37U, U38A, C39U
B16: Ie_S2_P4E.1_K4.1_C4.1_H4.1_A4.1_F4.1_[+8CCTCT]_T4.1 (ssRNA)
RNA: B10 RNA with U36C
B17: Ie_S2_P5E.1_K5.1_C5.1_H5.1_[+1CCCT]_A5.1_F5.1_T5.1 (ssRNA)
RNA: B10 RNA with G29C, U30C, A31C, A33G, U35A, C37U, U38A, C39U
B18: Ie_S2_P5E.1_K5.1_C5.1_H5.1_[+2CCTC]_A5.1_F5.1_T5.1 (ssRNA)
RNA: B10 RNA with U30C, A31C, A33C, U35A, C37U, U38A, C39U
B19: Ie_S2_P4E.1_K4.1_C4.1_H4.1_A4.1_F4.1_[+9TCTCT]_T4.1 (ssRNA)
RNA: B10 RNA with U36A, C37U, U38C, C39U, U40C, A41U
B20: Ie_S2_P4E.1_K4.1_C4.1_H4.1_A4.1_F4.1_[+8TTCCT]_T4.1 (ssRNA)
RNA: B10 RNA with C37U, U38C
B21: Ie_S2_P4E.1_K4.1_C4.1_H4.1_A4.1_F4.1_[+9CCCTT]_T4.1 (ssRNA)
RNA: B10 RNA with U36A, U38C, A41U
B22: Ie_S2_P5E.1_K5.1_C5.1_H5.1_[+1CTCT]_A5.1_F5.1_T5.1 (ssRNA)
RNA: B10 RNA with G29C, A31C, A33G, U35A, C37U, U38A, C39U
B23: Ie_S2_P5E.1_K5.1_C5.1_H5.1_[+2TTCC]_A5.1_F5.1_T5.1 (ssRNA)
RNA: B10 RNA with A31U, U32C, A33C, U35A, C37U, U38A, C39U
B24: Ie_S2_P4E.1_K4.1_C4.1_H4.1_A4.1_F4.1_[+9CCC]_T4.1 (ssRNA)
RNA: UUUGAUUAAUAUGAUAUCGUUCUUUCUUGUAUAUUACCCUUCUUUCUCGAUAUCAUAUUAAUCUUU
B25: Ie_S2_P5E.1_K5.1_C5.1_H5.1_[+2CT]_A5.1_F5.1_T5.1 (ssRNA)
RNA: B24 RNA with U30C, A31U, C37U, C38U, C39A
B26: Ie_S2_P5E.1_K5.1_C5.1_H5.1_[+2CC]_A5.1_F5.1_T5.1 (ssRNA)
RNA: B24 RNA with U30C, A31C, C37U, C38U, C39A
B27: Ie_S2_P5E.1_K5.1_C5.1_H5.1_[+2TT]_A5.1_F5.1_T5.1 (ssRNA)
RNA: B24 RNA with A31U, C37U, C38U, C39A
B28: Ie_S2_P5E.1_K5.1_C5.1_H5.1_[+1CC]_A5.1_F5.1_T5.1 (ssRNA)
RNA: B24 RNA with G29C, U30C, A31G, C37U, C38U, C39A
B29: Ie_S2_P4E.1_K4.1_C4.1_H4.1_A4.1_F4.1_[+9TTT]_T4.1 (ssRNA)
RNA: B24 RNA with C37U, C38U, C39U
B30: Ie_S2_P4E.1_K4.1_C4.1_H4.1_A4.1_F4.1_[+9TTC]_T4.1 (ssRNA)
RNA: B24 RNA with C37U, C38U
B31: Ie_S2_P5E.1_K5.1_C5.1_H5.1_[+1TCTC]_A5.1_F5.1_T5.1 (ssRNA)
RNA: UUUGAUUAAUAUGAUAUCGUUCUUUCUUUCUCGUAUUAUUAUUCUUUCUCGAUAUCAUAUUAAUCUUU
B32: Ie_S2_P4E.1_K4.1_C4.1_H4.1_A4.1_F4.1_[+9C]_T4.1 (ssRNA)
RNA: UUUGAUUAAUAUGAUAUCGUUCUUUCUUGUAUAUUACUUCUUUCUCGAUAUCAUAUUAAUCUUU
B33: Ie_S2_P4E.1_K4.1_C4.1_H4.1_A4.1_F4.1_[+9T]_T4.1 (ssRNA)
RNA: B32 RNA with C37U
B34: Ie_S2_P5E.1_K5.1_C5.1_H5.1_[+1CTCTC]_A5.1_F5.1_T5.1 (ssRNA)
RNA: UUUGAUUAAUAUGAUAUCGUUCUUUCUUCUCUCGUAUUAUUAUUCUUUCUCGAUAUCAUAUUAAUCUUU
B35: Ie_S2_P5E.1_K5.1_C5.1_H5.1_[+2CTCTC]_A5.1_F5.1_T5.1 (ssRNA)
RNA: B34 RNA with C29G, U30C, C31U, U32C, C33U, G34C
B36: Ie_S2_P5E.1_K5.1_C5.1_H5.1_[+1CCTCT]_A5.1_F5.1_T5.1 (ssRNA)
RNA: B34 RNA with U30C, C31U, U32C, C33U
B37: Ie_S2_P5E.1_K5.1_C5.1_H5.1_[+1CCCTT]_A5.1_F5.1_T5.1 (ssRNA)
RNA: B34 RNA with U30C, C33U
B38: Ie_S2_P5E.1_K5.1_C5.1_H5.1_[+1CCC]_A5.1_F5.1_T5.1 (ssRNA)
RNA: UUUGAUUAAUAUGAUAUCGUUCUUUCUUCCCGUAUUAUUAUUCUUUCUCGAUAUCAUAUUAAUCUUU
B39: Ie_S2_P5E.1_K5.1_C5.1_H5.1_[+1TCT]_A5.1_F5.1_T5.1 (ssRNA)
RNA: B38 RNA with C29U, C31U
B40: Ie_S2_P5E.1_K5.1_C5.1_H5.1_[+1TCC]_A5.1_F5.1_T5.1 (ssRNA)
RNA: B38 RNA with C29U
B41: Ie_S2_P4E.1_K4.1_C4.1_H4.1_A4.1_F4.1_[+8CCCT]_T4.1 (ssRNA)
RNA: UUUGAUUAAUAUGAUAUCGUUCUUUCUUGUAUAUUCCCUAUUCUUUCUCGAUAUCAUAUUAAUCUUU
B42: Ie_S2_P5E.1_K5.1_C5.1_H5.1_[+2TCC]_A5.1_F5.1_T5.1 (ssRNA)
RNA: B38 RNA with C29G, C30U, G32C
B43: Ie_S2_P5E.1_K5.1_C5.1_H5.1_[+2CTC]_A5.1_F5.1_T5.1 (ssRNA)
RNA: B38 RNA with C29G, C31U, G32C
B44: Ie_S2_P5E.1_K5.1_C5.1_H5.1_[+3TTT]_A5.1_F5.1_T5.1 (ssRNA)
RNA: B38 RNA with C29G, C30U, C31U, G32U
B45: Ie_S2_P5E.1_K5.1_C5.1_H5.1_[+2CTT]_A5.1_F5.1_T5.1 (ssRNA)
RNA: B38 RNA with C29G, C31U, G32U
B46: Ie_S2_P5E.1_K5.1_C5.1_H5.1_[+1CTT]_A5.1_F5.1_T5.1 (ssRNA)
RNA: B38 RNA with C30U, C31U
B47: Ie_S2_P5E.1_K5.1_C5.1_H5.1_[+1TTC]_A5.1_F5.1_T5.1 (ssRNA)
RNA: B38 RNA with C29U, C30U
B48: Ie_S2_P5E.1_K5.1_C5.1_H5.1_[+1CTC]_A5.1_F5.1_T5.1 (ssRNA)
RNA: B38 RNA with C30U
B49: Ie_S2_P5E.1_K5.1_C5.1_H5.1_[+1TTT]_A5.1_F5.1_T5.1 (ssRNA)
RNA: B38 RNA with C29U, C30U, C31U
B50: Ie_S2_P5E.1_K5.1_C5.1_H5.1_[+2TTC]_A5.1_F5.1_T5.1 (ssRNA)
RNA: B38 RNA with C29G, C30U, C31U, G32C
B51: Ie_S2_P5E.1_K5.1_C5.1_H5.1_[+2TCT]_A5.1_F5.1_T5.1 (ssRNA)
RNA: B38 RNA with C29G, C30U, G32U
B52: Ie_S2_P4E.1_K4.1_C4.1_H4.1_A4.1_F4.1_[+9TCTC]_T4.1 (ssRNA)
RNA: B41 RNA with C36A, C37U, A40C

Molecular target: T1, PUF4 RNA-binding domain
Assay: Mg; RNA-MaP; 20 mM Na-HEPES pH 7.4, 30 mM KOAc, 0.75 mM MgCl2, 0.1% Tween-20, 5% glycerol, 0.1 mg/mL BSA, 2 mM DTT; 25 C; 0.0125-409.6 nM protein
Settings: tags: N-His6-TEV cleaved; C-SNAP kept, Cy3B-labelled; label: tethered on chip by stalled RNA polymerase

Binder | Kd [nM]
B1 | 184
B2 | 889
B3 | 15.6
B4 | > 2300
B5 | 798
B6 | 495
B7 | 0.543
B8 | 0.411
B9 | 26
B10 | 3.78
B11 | 34.8
B12 | 0.532
B13 | 0.733
B14 | 0.282
B15 | 1170
B16 | 4.43
B17 | 1.15
B18 | 1100
B19 | 0.382
B20 | 3.81
B21 | 0.523
B22 | 1.25
B23 | 37.6
B24 | 0.512
B25 | 725
B26 | 679

Binder | Kd [nM]
B27 | 6.21
B28 | 565
B29 | 0.208
B30 | 0.446
B31 | 245
B32 | 1.33
B33 | 0.265
B34 | 204
B35 | 724
B36 | 1.23
B37 | 1.2
B38 | 178
B39 | 1.14
B40 | 198
B41 | 3.71
B42 | 22.2
B43 | 499
B44 | 11.3
B45 | 368
B46 | 1.16
B47 | 374
B48 | 355
B49 | 1.6
B50 | 6.91
B51 | 11.1
B52 | 0.324
